Measured values reported in the nanobody polyreactivity screen of Harvey et al. (2022).

Test: yeast display, Sf9 membrane polyspecificity reagent, FACS + sequencing; frameworks hold sequencing errors
How it was run: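 Sorting gates, low and high (top ~1%), were placed on anti-HA fluorescence to track expression and on streptavidin fluorescence to track reagent binding. A clone's polyreactivity label is taken from the gate it came out of. The reagent was 10% biotinylated, detergent-solubilized Sf9 membrane, applied for 1 hour at 4 °C to galactose-induced yeast display cells.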

| Sequence | polyreactivity (PSR sort gate) |
| --- | --- |
| QVQLVESGGGLVQAGGSLRLSCAASGLIFWAYAMGWYRQAPGKERELVAAINSGGRTYYADSVKGRFTISRDNAKNTVYLQMNSLKPEDTAVYYCAAAGVYSSDYWGQGTQVTVSS | low polyreactivity |
| QVQLVESGGGLVQAGGSLRISCAASGFTFYIYAMGWYRQAPGKERELVAAISARGGSTYYADSVKGRFTISRDNAKNTVYLQMNSLKPEDTAVYYCNALYNYAEIYGRGYWGLGTQVTVSS | high polyreactivity |
| QVQLVESGGGLVQAGGSLRLSCAASGSTFYIYAMGWYRQAPGKERELVARITRGGTTYADSVKGRFTISRDNAKNTVYLQINSLKPEDTAVYYCAARSFNIRGRYDYWGQGTQVTVSS | high polyreactivity |
| QVQLVESGGGLVQAGGSVRLSCAASGRTFYYNAMGWYRQAPGKERELVAAISWSGGSTYYADSVKGRFTISRDNAKNTVYLQMNSLKPEDTAVYYCAARSRYYHFDYWGQGTQVTVSS | high polyreactivity |
| QVQLVESGGGLVQAGGSLRLSCAASGFTFQNYVMGWYRQAPGKERELVAAINSGGRTYYADSVKGRFTISRDNAKNTVYLQMNSLKPEDTAVYYCNAVQPATYKYRSHVIEYDYWGQGTQVTVSS | high polyreactivity |
| QVQLVQSGGGLVQAGGSLRLSCAASGSTFSQYVMGWYRQARGKERELVAAINKNGGRTYYADSVKGRFTISRDNAKNTVYFQMISLKPEDTAVYYCAADVYGQDDYWGQGTQVTVSS | high polyreactivity |
| QVQLHESGGGLVQAGGSLRRSCAASGTISYAGPMGWYRQAPGKEREFVAGIGVGSNTNYADSVKGRYTIIRDNAKNTVYLQMNSLKPEDTAVYYCAVGGYAPLGRPYWGQGTQVTVSS | low polyreactivity |
| QVQLVESGGGLVQAGGSLRLSCAASGRIWYYAMGWYRQAPGKERELVAAISFSGGTTYYADSVKGRFTISRDNAKNTVYFPMNSLKPEDTGVYYCNKVSVGRYKRDYWGQGTQVTVSS | high polyreactivity |
| QVQLVESGGGLVQAGGSLRLSCAASGSIFHGYAMGWYRQAPGKERELVAAISSTGGSTYYADSVKGRFTISRDNAKNTVYLQMNSLKPEDTAVYYCAAYYYVGYRARRYDYWGQGTQVTVSS | high polyreactivity |
| QVQLVESVGGLVQAGGSLRLSCAASVYTFPRYTMGWYRQAPGKERELVAAINWSGGSTYYADSVKRRFTISRDNAKNTVYLQMNSLKPEDTAVYYCNKAYVSRYDYWGQGTQVTVSS | high polyreactivity |
| QVQLVESGGGLDQAGGSLRLTCAASGSIFEIYDRGWYRQAPGKEMELVASIRTSGGSTFYADSVKGRFTISRDNAKNTVYLQMNSLKPEDTAVYYCAAGDVPRRIYLVYVGYLLDYWGQGTQVTVSS | low polyreactivity |
| QVQLVESGGGLVQAGGSLRLSCAASGSIFWLYAMGWYRQAPGKERELVATISSTGSTDYADSVKGRFTISRDNAKNTVYLQMNSLKPEDTAVYYCATDVFYSIFTPSPFEYDYWGQGTQVTVSS | high polyreactivity |
| QDQLVESGGGVVQAGGSLRLSCAASGSIFAYNAMGWYRQAPGKERELVAAITDSGGSTFYADSVKGRFTISRDNAKNTVYLQMNSLKPEDTAVYYCATSGDRLVWGQGTQVTVSS | low polyreactivity |
| QVQLVESGGGLVQAGGSLRLSCASSGRISYRNAMGWYRQAPGKERELVAAISSSGDSTYYADAVKGRFTISRDNAKNTVYLQMNSLKPEDTAVYYCAARHSAVYYGYHRYYYWGQGTQVTVSS | high polyreactivity |
| QVQLVESGGGLVQAGGSLRISCASSVRTFAWNAMGWYRQAPGKERELVAVITSGVSTNYADSVKGRFTISRDNANNTVYLQMNSLKPEDTAVYYCAARSWVYSVIGDNWGLGTQVTVSS | low polyreactivity |
| QVQLVESGGGLVQAGGSLRLSCAASGSTFKFNAMGWYRQAPGKERELVAAISRGGRTNYADSVKGRFTISRDNAKNTVYLQMNSLKPEDTAVYYCAKDVAGLFHVGALYYYWGQGTQVTVSS | low polyreactivity |
| QVQLVESGGGLVQAGGSLSLSCAASGLIYYSYAMGWYRQAPGKERELVAAITGGGSTNYADSVKGRFTISPDNAKNTVYLQMNSLKPEDTAVYYCAAAFTLRKYDYWGQGTQVSVSS | low polyreactivity |
| QVQLVESAGGLVQAGGSLRLSCAASGITHHHNAIGWSRQAPRKERELVAAITSNGGSTYYAVSVKGRFTISRDHAKNSVYLQINSLKPEDTAVYYCARDSKRLARYYYWGQGTQVTVSS | low polyreactivity |
| QFQLVESGGGLVQAGGSLRLSCAASGSIFRGYTMGWYRQAPGKERELVAAISWSGGSTYYADSVKGRFTISRDNAKNTVYLQMNSLKPEDTAVYFCAAGDYYHRIFLWYDYWGQGTQVTVSS | low polyreactivity |
| QVQLVESGGGLVQAGGSLRLSCASSGFTSWDNDMGWYRQAPGKERELVAAISRGGSTNYADSVKGRFTISRDNAKDTVYLQMNSLKPVDTAVYYCNADFAPWDKQDYPYDYDYWGQGTQVTVSS | low polyreactivity |
| QVQLVESGGGLVQAGGSLRLSCAASGSIFAYYTMGWSRQAPGKERELVATISSRGGSTNYADSVKGRFTISRDNAKNTVYLQMNSLKPEDTAVYYCNTAGAADRRRAYDHDYWGQGTQVTVSS | high polyreactivity |
| QVQLVESGGGLVQAGGSLRLSCAASGRTFVRNAMGWYRQAPGKERELVAAISSIGDSTYYADSVKGRFTISRDNAKNTVYLQMNSLKPEDTAVYYWAAEWVTSYYNYYHWGQGTLVTVSS | low polyreactivity |

| Sequence | polyreactivity (PSR sort gate) |
| --- | --- |
| QVQLVESGGALVQAGGSLRLSCAASGRIFGYYAMGWYRQAPGKERELVAAITVSGTSTYYADSVKGRFTISRDNAKNTVYLQMNSLKPEDTAVYYCAARPRRRYYGYDSWGQGTQVTVSS | high polyreactivity |
| QVQLVESGGGLVQAGGSLRLSCAASGSTLYYYAMGWSRQAPGKERELVAAISWSGGITYYADSVKGRFTISRDNAKNTVYLQMNSLKPEDTAVYYCAADKYQGYTFYQGYPGGGGYWGQGTQVTVSS | low polyreactivity |
| QVQLVESGGGLVQAGGSLLLSCAASGRIFIDYAMGLYRQAPGKERELVATISESGGTTYYADSVKGRFTISRDNGKNTVYLQMNSLKPEDTAVYYCAAKRLCRPYDYWGQGTQVTVSS | low polyreactivity |
| QVQLVESGGGLVQAGGSLRLSCAASGITFIYYAMGWYRQAPGKEREFVAAISSRDDSTYYADSVKGRFTISRDNAKNTVYLQMNSLKPEDTAVYYCAAASSRRSAIKYGYWGQGTQVTVSS | high polyreactivity |
| QVQLVESGGGLVQAGGSLRLSCAASGSTFEHYAMGWYRQAPGKERELVAAITRRGGSTYYADSVKGRFTISSDNAKNTVYLQMNSLKPEDTAVYYCYTVLRYSYYLPGYDYWGQGTQVTVSS | high polyreactivity |
| QVQHVESGGGLVQAGGSLRLSCAASGNIFVAYAMGGYRQAPGKERELVAAITSGGRTYADSVKGRFTISRDNAKNTVYLQMNSLKPEDTAVYYCNADPYYVYLGYYDRYYSGYGYWGQGTQVTVSS | low polyreactivity |
| QVQLVESGGGLVQAGGSLRLSCAASGGTFTRYTMGWYRQAHGKESELVAAISSSGGSTYYADSVKGRFTISRDNAKNTVYLQMNSLKPEDTAVYYCAAFKASSKQYPYDYWGQGTQVTVSS | high polyreactivity |
| QVQLVESGGGLVQAGGSLRLSCAASGNTFYRNAMGWYRQAPGKDRELVAAIDYGGSTTYYADSVKGRFTISRDNSKNTVYLQMNSLKPEDTAVYYCAAREYRIGHVQPMDYWGQGTQVTVSS | high polyreactivity |
| QVQLVESGGGLVQAGGSLRLSCAASGITFWYYAMGWYRQAPGKERELVAAISSSGGRTTYADSVKGRFTISRDNAKNTVYLQMNSLKPEDTAVYYCATTYGDRYVTAYDYWGQGTQVTVSS | high polyreactivity |
| QVQLVESGGGLVQAGGSLRLSCAASGLIFSYNAMGWYRQAPGKERELVASISSGDSTNYADSVKGRFTISRDNAKNTVYLQMNSLKPEDTAVYYCNKVYSWGDYTPPFYFPYDYWGQGTQVTVSS | low polyreactivity |
| QVQLVESGGGLVQAGGSLRLSCAASGSTFLYYDMGWYRQAPGKERELVADITWSGSGTYYADSVKGRFTISRDNAKNTVYLQMNSLKPEDTAVYYCDADDTWRGDQYFYSYDYWGQGTQVTVSS | low polyreactivity |
| QVQLVESGGGLVQGGSLRLSCAASGFTFPIYVMGGYRQAPGKERELVASISSVGSTNYADSVKGRFTISRDNAKNTVYLQMNSLKPEDTAVYYCNADAPNSYGGFDYWGQGTQVTVSS | low polyreactivity |
| QVQLEESGGGLVQAGGSLRLTCAASGLTSRNYAMGWYRHAPRKARELVAAISKSGSRTYYADSVKGRFTISRDNAKNTVYLQMNSLKPEDTAVYYCATDYLDGTSYDYWGQGTQVTVSS | high polyreactivity |
| QVQLVESGGGLVQAGGSLRLSCAASGSIFSRYAMGRYRQAPGKERELVAAISKSGGSTYYADSVKGRFTISRDNAKNTVYLQMNSLKPEDTAVYYCNARDSPGQRRAEPYGYWGQGTQVTVSS | high polyreactivity |
| QVQLVESGVGLVQAGGSLRLSCAASGITFYGYTMGWYRQAPGKEMELVASIRWRGGNTYYADSVKGRFTISRDNAKITVYLQMNSLKPEDTAVYYCNARARVYYYKEIVAYDYWGQGTQVTVSS | high polyreactivity |
| QVQLVESGGGLVQAGGSLRLSCAASGSTYPYAMGWYRQAPGKERELVAAIRWRGGSTKYADSVKGRFTISRDNAKNTVYLQMNSLKPEDTAVYYCARRWYYVLHGYWGQGTQVTVSS | high polyreactivity |
| QVQLVESGGGLVQAGGSLRLSCAASGFTIGKNAMGWYRQAPGKERELVAAISLSGGRTYADSVKGRFTISRDNAKNTVYLQMNSLKPEDTAVYYCAANRYPKFYWGQGTQVTVSS | high polyreactivity |
| QVQLVETGGGLVQAGGSLRLSCAASGSTFDYNAMGWYRQAPGKERELVASITESGDSTYYADSVKGRFTISRDNAKNTVYLQMNSLKPEDTAVYYCAATQVHWVYVVYYEYEYWGQGTQVTVSS | low polyreactivity |
| QVQLVESGGGLVQAGGSLRLSCAASGSTCDTNVMGWYRQAPGKERELVAAITTSSSRTYYADSVKGRFTISRDNAKNTGYLQMNSLKPEDTAVYDCAARIHGSWSFDYWGQGTQVTVSS | low polyreactivity |
| QVQLVESGGGLVQAGGSLRLSCAASGIILRYYAMGWYRQAPGKERELVAAISGSGTRTYYADSVKGRFTISRDNAKNTVYLQMNSLKPEDTAVYYCAALVWGGYDYWGQGTQVTVSS | high polyreactivity |
| QVQLVESGGGLVQAGGSLRLSCAASGLIIWLYTMGWYRQAPGKERELVAAIDWSGGSTYYADSVKGRFTISRDNAKNTVYLQMNSLKPEYTAVYYCAADPEPSYRFDYWGQGTQVTVSS | low polyreactivity |
